Measured values published in paper PMC6821881, “Development of a Potent and Protective Germline-Like Antibody Lineage Against Zika Virus in a Convalescent Human” (Frontiers in Immunology, 2019).
Residue numbers refer to the chain shown, from its start. Names may count otherwise.

B1: 2L-1 (S31N+A91S) (antibody, V domains shown)
VH: EVQLVQSGAEVKKPGASVKVSCKASGYTFTSGHTFPSYDINWVRQATGQGLEWMGWMNPNRGNTGYAQKFQGRVTMTRNTSINTAYMELSSLRSEDTAVYYCARVRSGTNYGSYYYYYYGMDVWGQGTTVTVSS
VL: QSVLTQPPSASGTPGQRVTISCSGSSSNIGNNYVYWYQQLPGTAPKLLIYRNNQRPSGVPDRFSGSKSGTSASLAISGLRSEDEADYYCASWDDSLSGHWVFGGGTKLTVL
notes: also called double mutation (S31N+A91S) into 2L-1; source: HEK 293T, transiently co-transfected, purified from supernatant (protein A agarose)
B2: 2H-6 (antibody, V domains shown)
VH: EVQLVQSGAEVKKPGASVKVSCKASGYTFTSYDVNWVRQATGQGLEWMGWLNPNSGNTGYAEKFQGRVTMTRNTSISTAYMELSSLRSEDTAVYYCARVSSGSYYGSYYYYYYGMDVWGQGTTVTVSS
VL: SYELTQPPSASGTPGQRVTISCSGSSSNIGNNYVHWYQQLPGSAPKLLIYRNNQRPSGVPDRFSGSKSGTSGSLAISGLRSEDEADYYCASWDDSLSGHWVFGGGTKVTVL
notes: also called ZK2B10 heavy chain somatic variant 2H-6; source: HEK 293T, transiently co-transfected, purified from supernatant (protein A agarose)
B3: 2H-16 (antibody, V domains shown)
VH: B2 VH with E1Q, V34I, L51M, Y60C, E62Q
VL: B2 VL
notes: also called ZK2B10 heavy chain somatic variant 2H-16; source: HEK 293T, transiently co-transfected, purified from supernatant (protein A agarose)
B4: 2H-4 (antibody, V domains shown)
VH: B2 VH with E1Q, A9R, A24G, V34I, T41P, L51M, E62Q, E89G
VL: B2 VL
notes: also called ZK2B10 heavy chain somatic variant 2H-4; source: HEK 293T, transiently co-transfected, purified from supernatant (protein A agarose)
B5: 2H-5 (antibody, V domains shown)
VH: B2 VH with E1Q, K19N, S31M, V34I, A40T, L51M, E62Q
VL: B2 VL
notes: also called ZK2B10 heavy chain somatic variant 2H-5; source: HEK 293T, transiently co-transfected, purified from supernatant (protein A agarose)
B6: 2H-9 (antibody, V domains shown)
VH: B2 VH with A9G, E10K, K12V, K13E, P14L, S31T, V34I, L51M, E62Q
VL: B2 VL
notes: also called ZK2B10 heavy chain somatic variant 2H-9; source: HEK 293T, transiently co-transfected, purified from supernatant (protein A agarose)
B7: 2H-15 (antibody, V domains shown)
VH: B2 VH with L51M, E62Q
VL: B2 VL
notes: also called ZK2B10 heavy chain somatic variant 2H-15; source: HEK 293T, transiently co-transfected, purified from supernatant (protein A agarose)
B8: 2H-10 (antibody, V domains shown)
VH: B2 VH with E1Q, A9V, K19E, K23Q, Y27I, F29S, V34I, T41N, L51M, E62Q
VL: B2 VL
notes: also called ZK2B10 heavy chain somatic variant 2H-10; source: HEK 293T, transiently co-transfected, purified from supernatant (protein A agarose)
B9: ZK2B10 (antibody, V domains shown)
VH: B1 VH
VL: B2 VL
notes: also called WT ZK2B10; wild-type (WT) ZK2B10; source: HEK 293T, transiently co-transfected, purified from supernatant (protein A agarose)

molecular target: T1, ZIKV E protein (GZ01) (Zika virus, isolate GZ01 (KU820898)); assay: ELISA; E protein or E DIII protein captured separately onto ELISA plates overnight at 4°C; each mAb (full-length IgG) serially diluted and applied; detected with anti-human IgG-HRP and TMB; EC50 by dose-response stimulation model; details: both partners purified
T1 construct: also called full-length E; surface envelope glycoprotein (E); source: E. coli BL21 (RIL), pET28a, IPTG-induced; inclusion bodies solubilized and re-folded

Binding result, binds:
B1, B2, B3, B4, B5, B6, B7, B8

molecular target: T2, ZIKV E DIII protein (residues 301-403) (Zika virus, isolate GZ01 (KU820898)); assay: as above; details: both partners purified
T2 construct: source: E. coli BL21 (RIL), pET28a, IPTG-induced; inclusion bodies solubilized and re-folded

Binding result, binds:
B1, B2, B9, B3, B4, B5, B6, B7, B8
